# Assay results published in patent US5776888A, “Compounds and compositions for delivering active agents” (Emisphere Technologies, Inc., priority 1997, dated 1998).
# Where two headings read alike, the source gives them in different places.
# Design: species or system rats
# Conditions: rat, in vivo, 1 mg/kg
substance,measurement,setting,value
interferon,Mean peak serum interferon concentration,,79±100
same,Mean peak serum interferon concentration,po,1951±1857
